Data set [1] deals with dephosphorylated IRAK4^KD (human) (UniProt Q9NWZ3). As to the kind of experiment: SEC-MALS. Background: In gel filtration, larger molecules generally elute earlier.
Data set [2] concerns the target dephosphorylated IRAK4^FL (human) (UniProt Q9NWZ3). As to the kind of experiment: SEC-MALS.
Data set [3] concerns the molecule itself. As to the kind of experiment: AUC.
Data set [4] concerns the molecule itself. In words: SEC-MALS.

Changes are numbered by the printed parent chain. Names may count otherwise.

As to “dephosphorylated IRAK4^KD (from UniProt Q9NWZ3 186-454) (domain or fragment)”, the stoichiometry N in data set [1] was 2. Take “dephosphorylated IRAK4^FL (from UniProt Q9NWZ3 1-460) (enzyme)”: the stoichiometry N in data set [2] amounted to 2.

B1: IRAK4^FL-D311N (full-length IRAK4, catalytically inactive, unphosphorylated) (enzyme, human, UniProt Q9NWZ3 1-460, looked up)
chain: MNKPITPSTYVRCLNVGLIRKLSDFIDPQEGWKKLAVAIKKPSGDDRYNQFHIRRFEALLQTGKSPTSELLFDWGTTNCTVGDLVDLLIQNEFFAPASLLLPDAVPKTANTLPSKEAITVQQKQMPFCDKDRTLMTPVQNLEQSYMPPDSSSPENKSLEVSDTRFHSFSFYELKNVTNNFDERPISVGGNKMGEGGFGVVYKGYVNNTTVAVKKLAAMVDITTEELKQQFDQEIKVMAKCQHENLVELLGFSSDGDDLCLVYVYMPNGSLLDRLSCLDGTPPLSWHMRCKIAQGAANGINFLHENHHIHRNIKSANILLDEAFTAKISDFGLARASEKFAQTVMTSRIVGTTAYMAPEALRGEITPKSDIYSFGVVLLEIITGLPAVDEHREPQLLLDIKEEIEDEEKTIEDYIDKKMNDADSTSVEAMYSVASQCLHEKKNKRPDIKKVQQLLQEMTAS
Regarding B1, in data set [3], the dissociation constant Kd came to 2500 ± 400 nM.

B2: IRAK4^KD-D311N (IRAK4 kinase domain, catalytically inactive, unphosphorylated) (domain or fragment, human, UniProt Q9NWZ3 164-460, looked up)
chain: RFHSFSFYELKNVTNNFDERPISVGGNKMGEGGFGVVYKGYVNNTTVAVKKLAAMVDITTEELKQQFDQEIKVMAKCQHENLVELLGFSSDGDDLCLVYVYMPNGSLLDRLSCLDGTPPLSWHMRCKIAQGAANGINFLHENHHIHRNIKSANILLDEAFTAKISDFGLARASEKFAQTVMTSRIVGTTAYMAPEALRGEITPKSDIYSFGVVLLEIITGLPAVDEHREPQLLLDIKEEIEDEEKTIEDYIDKKMNDADSTSVEAMYSVASQCLHEKKNKRPDIKKVQQLLQEMTAS
B2: in data set [4], the “stoichiometry N” value was determined as 2.

B3: IRAK4^KD-D311N Y262T (domain or fragment, human, UniProt Q9NWZ3 164-460, looked up)
chain: B2 chain with Y99T
Regarding B3, in data set [4], the binding result is listed as “binds”.

The stoichiometry N is the number of molecules, sites or subunits per partner or assembly. For orientation: Kd means the constant that tells how readily two partners part at equilibrium. Read a low Kd as higher affinity.

Values taken from paper PMC4169746 (Molecular cell, 2014).
